“And” between values parts separate entries of the source, which are not always exact repeats. Equal entries are not always repeated. Where two headings read alike, the source gives them in different places.
Columns and labels:
[1] = target: N-terminal domain of Vibrio cholerae ParD2 as crystallised (V. cholerae); assay: crystal structure
[2] = target: N-terminal domain of Vibrio cholerae ParD2 as crystallised (V. cholerae); assay: crystal structure; remark: listed apart in the source
[3] = target: the molecule itself; assay: […]; pH 8.0 and pH 5.6, […]
SAXS (SEC-SAXS) = target: the molecule itself; assay: SAXS (SEC-SAXS)
native MS = target: the molecule itself; assay: native MS

Row | Molecule | stoichiometry N [1] | stoichiometry N [2] | stoichiometry N [3] | stoichiometry N (SAXS (SEC-SAXS)) | stoichiometry N (native MS)
1 | N-terminal domain of Vibrio cholerae ParD2 as crystallised (domain or fragment) | 2 | 16 | – | – | –
2 | Vibrio cholerae ParD2 antitoxin (natural protein, also called VcParD2) MAKNTSITLGEHFDGFITSQIQSGRYGSASEVIRSALRLLENQETKLQSLRQLLIEGEQSGDADYDLDSFINELDSENIR | – | – | 10 and 8 | 12 | 2 and 4

Source: paper PMC8251345, “Entropic pressure controls the oligomerization of the Vibrio cholerae ParD2 antitoxin” (Acta Crystallographica. Section D, Structural Biology, 2021)
